System: K4 kissing-loop RNA reporter
Test: apparent KD of K4 kissing-loop reporter; higher = weaker reporter binding
Conditions: Eterna round: R107
Description: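 RNA-MaP round R107: designed RNA switches with theophylline, tryptophan, arginine or FMN aptamers are transcribed on-chip within common flanks. They are titrated with a labelled K4 kissing-loop RNA reporter in RNA-MaP buffer (100 mM Tris pH 7.5, 80 mM KCl, 4 mM MgCl2), without ligand or with the indicated ligand. Median apparent KD per design.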

[1] = input ligand: theophylline 20 uM
[2] = input ligand: tryptophan 2.4 mM
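Further: bound reporter read as fluorescence of individual clusters on recovered sequencing chips by microscopy, with normalized cluster intensities fitted with a binding model.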

Sequence	apparent KD of K4 kissing-loop reporter (input ligand: FMN 200 uM) [nM]	apparent KD of K4 kissing-loop reporter (input ligand: arginine 13.2 mM) [nM]	apparent KD of K4 kissing-loop reporter (input ligand: none) [nM]	apparent KD of K4 kissing-loop reporter [1] [nM]	apparent KD of K4 kissing-loop reporter [2] [nM]
GUCUGCGUCUCGGCCGCCACUCACUAGUGAUGUUAGUAAGGAGCGACUAGAGAAGUCCAGUUAAUGAGGACCGGGAGAAGCUCUU [Exclusion Tryptophan B GF 3]	122	133	137	106	117
GUCUGUGUACUAGGAUAUGGUUGCAGACAGUCAGGUCGCCUUUUCGGCGGCCAGUGAUGUUGGUGGCCAGAAGGAGUACGUGAAG [Biririge]	384	1580	1110	395	1480
GUGCGCGGUGCGGCCGCCACUCGGAUGCGAGUGAUGUUCGCGGGACGGACGCAAGUCCGUCAUUCGAGGACCGGGCAUGGCUGUA [#2 Same State - Tryptophan B Attempt #5 (HarryS)]	336	274	247	252	169
GUGUAACGAGGAAACCUCGUUACACCCUCACGAGGACCGGUACGGCCGCCACUCGAGAGCUCGUGAGGAGUGAUGUUCCUCGUGA	695	335	441	435	184
GUUAAUAGUAGUGAUGUUACAAUAGUUUGUGAGGAUAUCCCGAAAGGGAGAAGGCACAAACAAAUAGAUUCUCACAAAUAUUUAC [FMN A exclusion]	191	185	243	238	146
GUUGACAGACUGCAAAACUAGUCAACAGACUAGGAUAUCAGGAAACUGAGAAGGAGUCAAGUUGCAGUGAUGUUGCAAGAAUAAU [KL-SSFMN-A27]	137	182	173	214	136
GUUGUAUACUGAAGGAGCGAGUAGUGGAAACAUAAACUCAUUGCGAGUGAUGUUCGCAGUACUCAGGUAGGUCGCAGUAAUCGUA [Exclusion Arginine B Gf 10]	534	315	566	453	456
GUUUGCCGGUCCCGGAGUGAUGUUCCGGAUACCAGCAACUUCCUUUGCCCUUGGCAGCCGUAGCUAUACCGGGUGGCAGCUUCAG [Anresoenus]	111	89.5	104	110	111
GUUUGCCGGUUCCGGAGUGAUGUUCCGGAUACCAGCAACUUCCUUUGCCCUUGGCAGCCGUAGCUAUACCGGAUGGCAGCUUCAG [Arrexean]	96.1	82.7	89.3	86.7	95.4
UAACUCUUGCAGUGAUGUUGCAAGUAAGCUCAGGAUAUCAGGAAACUGAGAAGGGAGCAUCCUGAGCAACUGCAAGAGCUCAGAA [[K1]-[K2]-[F1]-[F2]-[F]'-[K]'-[F]''_Design1]	224	101	95.9	160	87.5
UAAGAGGACCACUGCGAGAGUCCUCGAAUACGAGGACCGGUACGGCCGCCACUCGAUAAUUUGUAGUGAUGUUGCAAGUAAGAAU [BrourdMod 7 - Jieux - Same State Tryptophan A]	50.3	64.5	42.1	61.9	31.8
UACGCCACAGACGUGGAGUACCUUGGGUCGAAGGAUAUCAGCAUUGUGAGAAGGUCGCCGAUUCUAAGUGAUGUUUAGAUCAGGG [theeternabot_sameState_KL_FMN_A_2]	132	275	446	567	409
UACUUAUAGUUAUUUCUAAAUUUAUUUAGUCAGGAUAUCGAAUAGUCGAGAAGGGACAUAAUCAAGUGAUGUUUGAUUAUUCAAA [JR_SSFMNA_Sub023]	64.8	96.1	84.8	88.8	69.6
UACUUAUAUUUCAACUUAAAUUAUUCAGAAGGAGCGUGAUCAUUCACAGGUAGGUCGCUGAACUAGUGAUGUUAGUUUUAAUUUU [JR_Nu_ExcArginiA_Sub022]	66.3	127	76.5	116	62.2
UAGCGCAACCUGCUUACGUAUGAGCCGGAAGGAGCGGCAGAAUUGCCAGGUAGGUCGCCGGCCCAGUGAUGUUGGGAUGGUGUGG [Usritiis]	265	226	252	223	228
UAGGAGUGAUGUUCCAUAUGUAAGGCCGAAGGAGCGGCAUUAUAGCCAGGUAGGUCGCGGCAGUACGUACCAGUGAUGUUGGAAA [KL-SSArg-A5]	173	94.9	150	119	116
UAGUCAUACAGAGGAUAUCGUAUGAGUGAUGUUCAUACGACAUAAUCAAAUUGUAUUGAUGUUCGACGAGAAGGCUGUAUGACUA [FMN B Ex t1]	221	103	124	117	124
UAUAGAAACGUCCUAUCAAUAAAAUGGGAAGGAGCGAGGAAGAACUCAGGUAGGUCGCCCAAUAACCUUAGUGAUGUUAAGGAAA [Version 1]	126	112	137	156	117
UAUAGAGUGACGGCCGCCACUAUUGUGAUUUAAUUGUUAGAGUGAUGUUUUGUUGUUUGAUUUUGUAGGACCGGGUUAUAUGUUA [ecewzmullin]	1050	768	976	854	802
UAUAUAGUGACGGCCGCCACUAUAGUAAUGUUUUUGUUAGAGUGAUGUUUUGUUUUUUAAUUUUAUAGGACCGGGUUAUAUGUUA [llpmullin]	360	218	374	376	240
UAUGCUUGUGCUGAUACCAGUGUUAGUGAUGUUAGGACUGUCAGUAGGAUGCGUGCAUUUCACCCUUGGCAGCAGUAUCGCAGCA [theeternabot_exclusion_KL_Theo_B_48]	447	295	351	426	387
UAUGUACACGGGUAGUGAUACAUCGAGGAAGGAGCGUGCGCAGGCACAGGUAGGUCGCCUCAGCGCACGAGUGAUGUUCGUGGGC [Veti]	471	325	393	380	376

Sequence	apparent KD of K4 kissing-loop reporter (input ligand: FMN 200 uM) [nM]	apparent KD of K4 kissing-loop reporter (input ligand: arginine 13.2 mM) [nM]	apparent KD of K4 kissing-loop reporter (input ligand: none) [nM]	apparent KD of K4 kissing-loop reporter [1] [nM]	apparent KD of K4 kissing-loop reporter [2] [nM]
UAUUAAUUGUCAGGAUAUCGAAAUCGAGUGAUGUUCGUAAAUUAAUUAUUAUUAAUAAUAUUUAAACGAGAAGGGACAUUAUUUA [JR_SSFMNB_Sub001]	235	558	694	647	442
UAUUAAUUGUCAGGAUAUCGUAAACGAGUGAUGUUCGUAUAUCGACGAUAGUCGAUUCUAUCUAAACGAGAAGGGACAUUAUUUA [JR_SSFMNB_Sub008]	346	454	664	516	420
UCACUCAUGUGAAGGAGCGUGAGAAGACAUGAGUGAUGUUCAUGUCUAGACCAGCGUCUCUCACAGGUAGGUCGCACAUGAAAGG [Arg B SS t10]	128	105	121	100	121
UCCACGCUUCGAGGAUAUCGGAUUAGAGUGAUGUUCUAAAGACGCCCAGUGAUGUUGGAUGCGAUACGAGAAGGCGGUGGCGUGU [Same State FMN B GF6]	236	195	244	140	176
UCCUGCAGUCUGCCACGAAAGUGGAUUGAUACCAGAGUCGAAAGACUCCCUUGGCAGCGAGUGAUGUUCGAAGCAGGUAAAUAAA [MatMod 1 - Jieux - Exclusion - Theophylline A]	160	204	178	221	130
UCCUUUGUUGCCAGUGAUGUUGGACAGGAAGGAGCGGGCAUAAGCCCAGGUAGGUCGCCUGUCAACUUUCUUAUAGCCCGAAGGU [KL-XArg-A19]	441	352	368	424	370
UCGACUGUGUCGGCCGCCACUGGUAUAAACGGACUAUAACGACAUGAGUGAUGUUCAUGUUCGUCUAGGACCGGGACACAAUGUA [Tryp B Ex t3]	102	81.8	96.7	81.7	90
UCGAUAGAGAGUGAUGUUCUCGUAUCAGAUACCAGUCACGCGAGUGACCCUUGGCAGCUGAUGUACAGCUGAGAGUAGUAUUCGA [Theo A Ex t8]	90.1	104	90.5	129	89.6
UCGAUCGCUAGUGAUGUUGGUGUGCUACAUCGAGGACCGGUACGGCCGCCACUCGAGCCCGAGUAGAAGGGUGGGCUGCUAUGAA [theeternabot_sameState_KL_Trp_A_18]	1510	1030	1190	743	895
UCGCGUCUGUGAGGAUAUCAGAACAGAGUGAUGUUCUGUCAACGCCCAGUGAUGUUGGAUGCGAUCUGAGAAGGCACUGGGCGCA [Same State FMN B GF 9]	1060	865	1320	1700	1160
UCGUUAAAAGCGGCCGCCACUGCCAGAGCUCUGGAAAAGGCUGGAGUGAUGUUCUGCCUAGUAGACAGGACCGGGCUAUUGGAUU [theeternabot_sameState_KL_Trp_B_29]	667	422	609	588	594
UCUCAUCUCAGAAGGAGCGUGAGAGAAUAUUAGAAAUCGUCGAGUGAUGUUCGACGUCUCUCACAGGUAGGUCGCUGAGACGUCA [Arg B SS t9]	111	107	97.4	121	111
UCUGUUGUAUAUGAUACCAGCAGUGAGAGAUGAGAAGUAUAGUGAUGUUAUAUGAGAGAAUGCCCUUGGCAGCGUGUGCGUGUGG [SSTheophylB.aC]	105	98.3	83.2	100	76.9
UCUUUUGGCAUGGAUAGAAUGCCGACCGAUACCAGCAAAGUAGGAUGCCCUUGGCAGCGGAGUGAUGUUCCAUUGUCGCGGUUUG [theeternabot_exclusion_KL_Theo_A_48]	82.7	91.3	86.9	84.4	76.9
UGACAUUGCUCAGAUACCAGACAUGAGCAUCAGCCAUGUACCAAGAAAGUACAAUAAAAUGUCCCUUGGCAGCUGAGCAAUGUCU [TheoBX 8]	56.1	25.6	47.8	121	48.4
UGACAUUGCUCAGAUACCAGACAUGAGCAUCAGCCAUGUGCCAAAACGUACUAAAUAAAUGUCCCUUGGCAGCUGAGCAAUGUCU [TheoBX 13]	65	26.3	40.7	73.3	61.3
UGACUGGACUGAAGGAGCGCUGAAGGAGCGUAAGCAGUGAUGUUGCUUACAGGUAGGUCGCAGCAGGUAGGUCGCAGUCUAGUCU	93.5	78.7	93.4	90	99.6
UGACUGGAUGGAAGGAGCGCUAAACUCCUAGUGAUGUUAGGGAAAUGAGGCAAAGCCUCGAGGCAGGUAGGUCGCCAUCUAGUCU [FiskerMod 18 - Jieux - Same State - Arginine B]	160	121	155	148	144
UGAUACCAGACGGCCGCCACUACACCAGUCAAAGACUGGAUGUGAAAUUCGACCAGUGAUGUUGGUAGGACCGGGUCUGGUAUCU [TrypBX 8 #SwitchBubble #StaticStem]	383	313	379	347	591
UGAUACCAGACGGCCGCCACUCCCGCAGGUCAAAGACCUGCGAAGCUGGUUCUUCAGUGAUGUUGGAGGACCGGGUCUGGUAUCU [FiskerMod 24 - Jieux - Exclusion - Tryptophan B]	306	230	266	263	504
UGAUACCAGACGGCCGCCACUCCUGCAGUCAAAAGACUGCUAAAGGAAAUCGUCCAGUGAUGUUGGAGGACCGGGUCUGGUAUCU [TrypBX 16 #SwitchBubble #Palindromic #StaticStem]	1120	719	1380	991	403

Source: the supplement of paper PMC9170038
